For two substances, IC50 and Kd results are on record in US20190161539A1.

Test [1] concerns the target β-amyloid peptide (1-42) conjugated to BSA. Put plainly: competition ELISA on coated Aβ1-42-BSA against biotinylated Mu266, first set of three experiments.
For test [2] the target is unchanged. The test is described as follows: competition ELISA on coated Aβ1-42-BSA against biotinylated Mu266, second set of three experiments.
In another test the target is Aβ 1-40 peptide (human). The test is described as follows: KinExA 3000, equilibrium in solution with human soluble Abeta (1-40), 37° C.

As for Mouse monoclonal antibody 266 (Mu266), the half-maximal inhibitory concentration (IC50) worked out at 4.7 µg/mL in test [1] and 3.87 µg/mL in test [2]. Turning to m266-Fab, the Kd with Aβ 1-40 peptide (human) is 0.24 nM. That is a sub-nanomolar value.
